Measured values: patent US7265201 (Takeda / Millennium, dated 2007)

Experiments:
[1] = biological target: T1, synthetic human eotaxin (predicted mature protein consisting of amino acids 24-97) (human, UniProt P51671 24-97); experiment: Scatchard analysis of competition of unlabeled eotaxin with 125I-eotaxin on purified human eosinophils
T1 construct: also called clone #25 polypeptide; synthetic mature eotaxin
Experimental: Binding of RANTES, MIP-1α and human eotaxin was carried out in binding buffer consisting of 50 mM HEPES supplemented with 1 mM CaCl_2, 5 mM MgCl_2 and 0.5% BSA. […] The final reaction volume was 200 μls. Total binding was carried out in the absence of unlabeled chemokines, and non-specific binding was determined by incubating cells with radiolabeled chemokine in the presence of 250 nM of cold chemokine. At the end of incubation, cells were washed 3 times in binding buffer plus 0.5 M NaCl. The cell pellets were transferred into LP3 tubes and counted in a gamma counter.
RANTES and MIP-1a were not able to compete with eotaxin under the conditions used. […] The observed dissociation constant is analogous to other chemokine-receptor dissociation constants.

[2] = biological target: T1, synthetic human eotaxin (predicted …); experiment: radiolabeled eotaxin on 5×10^5 transfected L1-2 cells, with or without 125 nM unlabeled eotaxin
Experimental: Figure 11: FIG. 11 is a bar graph illustrating the binding of human eotaxin to CKR-3 transfected L1-2 cells. Radiolabeled eotaxin was incubated with 5 ×10^5 transfected cells or untransfected L1-2 cells.

T1 sequence (P51671 24-97): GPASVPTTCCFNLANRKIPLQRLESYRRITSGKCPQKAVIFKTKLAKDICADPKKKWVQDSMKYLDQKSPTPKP

| Binder | Kd [1] [nM] | binding result [2] |
| --- | --- | --- |
| receptor for eotaxin on purified human eosinophils (single class of high affinity binding sites) (receptor) MTTSLDTVETFGTTSYYDDVGLLCEKADTRALMAQFVPPLYSLVFTFGLLGNVVVVMILIKYRRLRIMTNIYLLNLAISDLLFLVTLPFWIHYVRGHNWVFGHGMCKLLSGFYHTGLYSEIFFIILLTIDRYLAIVHAVFALRARTVTFGVITSIVTWGLAVLAALPEFIFYETEELFEETLCSALYPEDTVYSWRHFHTLRMTIFCLVLPLLVMAICYTGIIKTLLRCPSKKKYKAIRLIFVIMAVFFIFWTPYNVAILLSSYQSILFGNDCERTKHLDLVMLVTEVIAYSHCCMNPVIYAFVGERFRKYLRHFFHRHLLMHLGRYIPFLPSEKLERTSSVSPSTAEPELSIVF | 4.7 |  |
| FLAG-tagged human C-C chemokine receptor 3 (CKR-3) expressed on transfected mouse L1-2 pre-B lymphoma cells (receptor, also called C-C CKR-3; CC-CKR-3) MDYKDDDDKEFTTSLDTVETFGTTSYYDDVGLLCEKADTRALMAQFVPPLYSLVFTFGLLGNVVVVMILIKYRRLRIMTNIYLLNLAISDLLFLVTLPFWIHYVRGHNWVFGHGMCKLLSGFYHTGLYSEIFFIILLTIDRYLAIVHAVFALRARTVTFGVITSIVTWGLAVLAALPEFIFYETEELFEETLCSALYPEDTVYSWRHFHTLRMTIFCLVLPLLVMAICYTGIIKTLLRCPSKKKYKAIRLIFVIMAVFFIFWTPYNVAILLSSYQSILFGNDCERTKHLDLVMLVTEVIAYSHCCMNPVIYAFVGERFRKYLRHFFHRHLLMHLGRYIPFLPSEKLERTSSVSPSTAEPELSIVF |  | binds |
